# From article PMC6430397, “The pharmacological properties of 3-arm or 4-arm DOTA constructs for conjugation to α-melanocyte-stimulating hormone analogues for melanoma imaging” (PLoS ONE, 2019)
# Experiments:
# [1] = Biological distribution in B16-F1 melanoma-bearing mice; assay type: in vivo, mouse; settings: male, C57BL6, mouse, in vivo, iv, 37 kBq/mouse, total radioactivity, Biological distribution
# Method: C57BL6 male mice (5 weeks old) were transplanted with B16-F1 cells (5 × 10^5 cells/100 μL) into the thigh of the mice. […] The mice were housed and continuously monitored each day for 2 weeks in a 12-hour light/12-hour dark cycle with free access to food and water. The tumor size reached 8.7 ± 2.8 mm at 2 weeks after transplant of cells. Two mice with tumor sizes of 13 and 15 mm were excluded from our experiments. Mice with a tumor size <10 mm were fasted with no food overnight with water supplied ad libitum before experiments.
# For biological distribution studies, B16-F1-bearing mice were administered ^111In-labeled 3-arm or 4-arm DOTA-α-MSH via the tail vein (37 kBq/mouse). At 10, 30, 60, 120, and 180 min after injection, the mice were euthanized under isoflurane (n = 3 per time point), and the following tissues were collected: brain, lung, heart, stomach, liver, small intestine, large intestine, kidney, blood, muscle, and B16-F1 melanoma. Tissues were weighed, and radioactivity was quantified using an automated γ-ray counter to calculate the percent injected dose (%ID) or percent injected dose per gram of tissue (%ID/g).
# For SPECT imaging, ^111In-labeled 3-arm or 4-arm DOTA-α-MSH was injected into the tail vein of four B16-F1-bearing mice in total (37 MBq/mouse). For SPECT imaging, acquisition was started at 10 min after injection and continued every 10 min for 180 min. The data were reconstructed using the ordered subset expectation maximization method with 16 subsets and six iterations including no scatter and attenuation correction. The voxel size was set to 0.8×0.8×0.8 mm. Post-reconstruction smoothing filtering was applied using a 1.0-mm Gaussian filter. […] In these images, three to five regions of interest were placed over the kidney, muscle, and B16-F1 melanoma in which accumulation could be seen, and the time activity curve of each was obtained as the %ID/g.
# [2] = Partition coefficient, n-octanol / 0.1 M phosphate buffer; assay type: physicochemical; settings: pH 7.4
# Method: The partition coefficients of ^111In-labeled 3-arm and 4-arm DOTA-α-MSH were measured using 2.0 mL n-octanol as the organic phase and 2.0 mL 0.l M phosphate buffer as the aqueous phase (pH 7.4 for plasma). N-octanol and the buffer were pre-mixed twice using a mechanical mixer for 1 min at room temperature. Then, 20 µL radioactive sample were added and mixed twice using a mechanical mixer for 1 min at room temperature. The radioactivity of 200 uL of each phase was measured after centrifugation. Calculation of log (n-octanol/0.l M phosphate buffer) was performed.
# MC1-R = molecular target: T1, MC1-R (Mus musculus, UniProt Q01727); settings: endogenous ligand; cited from earlier work
# T1 construct: host or cells: B16-F1 mouse melanoma cells
# Source text: The melanocortin 1 receptor (MC1-R) is one of the most targeted melanoma antigens and belongs to the melanocortin family of G protein-coupled receptors, which consists of five receptor subtypes, MC1-R to MC5-R. MC1-R is expressed in nearly all primary and metastatic melanomas and 95% of uveal melanomas. MC1-R is an attractive receptor for molecular-targeted imaging and radionuclide therapy of melanoma. α-melanocyte-stimulating hormone (α-MSH), a tridecapeptide, is an endogenous ligand for the melanocortin family of receptors, with subnanomolar binding affinity to MC1-R [5].
# T1 sequence (Q01727 whole entry): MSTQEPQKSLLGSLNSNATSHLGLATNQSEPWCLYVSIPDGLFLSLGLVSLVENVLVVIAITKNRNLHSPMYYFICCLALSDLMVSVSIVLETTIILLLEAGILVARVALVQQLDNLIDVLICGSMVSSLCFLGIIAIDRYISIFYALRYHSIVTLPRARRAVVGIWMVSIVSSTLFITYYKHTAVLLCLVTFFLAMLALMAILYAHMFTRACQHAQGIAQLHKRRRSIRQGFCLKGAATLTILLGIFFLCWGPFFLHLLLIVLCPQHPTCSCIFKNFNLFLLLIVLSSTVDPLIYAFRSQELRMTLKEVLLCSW
compound,measurement,setting,value
"CSCC[C@H](NC(=O)[C@H](CO)NC(=O)[C@H](Cc1ccc(O)cc1)NC(=O)[C@H](CO)NC(C)=O)C(=O)N[C@@H](CCC(=O)O)C(=O)N[C@@H](Cc1c[nH]cn1)C(=O)N[C@@H](Cc1ccccc1)C(=O)N[C@@H](CCCNC(=N)N)C(=O)N[C@@H](Cc1c[nH]c2ccccc12)C(=O)NCC(=O)N[C@@H](CCCCNC(=O)CN1CCN(CC(=O)O)CCN(CC(=O)O)CCN(CC(=O)O)CC1)C(=O)N1CCC[C@H]1C(=O)N[C@H](C(=O)O)C(C)C [^111In-labeled 3-arm DOTA-α-MSH, metal not drawn]",tissue uptake at 10 min,[1]; Blood,3.11 %ID/g
same,tissue uptake at 0.5 h,[1]; Blood,1.91 %ID/g
same,tissue uptake at 1 h,[1]; Blood,0.89 %ID/g
same,tissue uptake at 2 h,[1]; Blood,0.21 %ID/g
same,tissue uptake at 3 h,[1]; Blood,0.05 %ID/g
same,tissue uptake at 10 min,[1]; Brain,0.04 %ID/g
same,tissue uptake at 0.5 h,[1]; Brain,0.05 %ID/g
same,tissue uptake at 1 h,[1]; Brain,0.05 %ID/g
same,tissue uptake at 2 h,[1]; Brain,0.03 %ID/g
same,tissue uptake at 3 h,[1]; Brain,0.02 %ID/g
same,tissue uptake at 10 min,[1]; Heart,0.74 %ID/g
same,tissue uptake at 0.5 h,[1]; Heart,0.66 %ID/g
same,tissue uptake at 1 h,[1]; Heart,0.46 %ID/g
same,tissue uptake at 2 h,[1]; Heart,0.14 %ID/g
same,tissue uptake at 3 h,[1]; Heart,0.06 %ID/g
same,tissue uptake at 10 min,[1]; Kidney,23.6 %ID/g
same,tissue uptake at 0.5 h,[1]; Kidney,18.4 %ID/g
same,tissue uptake at 1 h,[1]; Kidney,11.9 %ID/g
same,tissue uptake at 2 h,[1]; Kidney,8.42 %ID/g
same,tissue uptake at 3 h,[1]; Kidney,7.07 %ID/g
same,tissue uptake dose at 10 min,[1]; Large intestine,0.03 %ID
same,tissue uptake dose at 0.5 h,[1]; Large intestine,0.08 %ID
same,tissue uptake dose at 1 h,[1]; Large intestine,0.09 %ID
same,tissue uptake dose at 2 h,[1]; Large intestine,0.05 %ID
same,tissue uptake dose at 3 h,[1]; Large intestine,0.04 %ID
same,tissue uptake at 10 min,[1]; Liver,2.3 %ID/g
same,tissue uptake at 0.5 h,[1]; Liver,1.15 %ID/g
same,tissue uptake at 1 h,[1]; Liver,1.12 %ID/g
same,tissue uptake at 2 h,[1]; Liver,1.23 %ID/g
same,tissue uptake at 3 h,[1]; Liver,0.72 %ID/g
same,tissue uptake at 10 min,[1]; Lung,0.51 %ID/g
same,tissue uptake at 0.5 h,[1]; Lung,0.66 %ID/g
same,tissue uptake at 1 h,[1]; Lung,0.31 %ID/g
same,tissue uptake at 2 h,[1]; Lung,0.27 %ID/g
same,tissue uptake at 3 h,[1]; Lung,0.1 %ID/g
same,tissue uptake at 10 min,[1]; Melanoma,1.71 %ID/g
same,tissue uptake at 0.5 h,[1]; Melanoma,1.81 %ID/g
same,tissue uptake at 1 h,[1]; Melanoma,2.49 %ID/g
same,tissue uptake at 2 h,[1]; Melanoma,3.36 %ID/g
same,tissue uptake at 3 h,[1]; Melanoma,3.51 %ID/g
same,tissue uptake at 10 min,[1]; Muscle,0.21 %ID/g
same,tissue uptake at 0.5 h,[1]; Muscle,0.2 %ID/g
same,tissue uptake at 1 h,[1]; Muscle,0.15 %ID/g
same,tissue uptake at 2 h,[1]; Muscle,0.09 %ID/g
same,tissue uptake at 3 h,[1]; Muscle,0.05 %ID/g
same,tissue uptake dose at 10 min,[1]; Small intestine,0.04 %ID
same,tissue uptake dose at 0.5 h,[1]; Small intestine,0.08 %ID
same,tissue uptake dose at 1 h,[1]; Small intestine,0.09 %ID
same,tissue uptake dose at 2 h,[1]; Small intestine,0.12 %ID
same,tissue uptake dose at 3 h,[1]; Small intestine,0.1 %ID
same,tissue uptake dose at 10 min,[1]; Stomach,0.06 %ID
same,tissue uptake dose at 0.5 h,[1]; Stomach,0.1 %ID
same,tissue uptake dose at 1 h,[1]; Stomach,0.12 %ID
same,tissue uptake dose at 2 h,[1]; Stomach,0.11 %ID
same,tissue uptake dose at 3 h,[1]; Stomach,0.12 %ID
same,logD,[2],-0.28 ± 0.03
α-melanocyte-stimulating hormone [α-MSH],binding affinity to MC1-R,MC1-R,subnanomolar
